Measured values as given in patent USRE41461E1, “Purification, composition and specificity of Heparinase I, II, and III from Flavobacterium heparinum” (Massachusetts Institute of Technology, priority 1992, dated 2010).
Read-outs that look alike come from different tables or passages of the source.

B1: Heparin lyase III: heparin lyase III (heparitinase EC 4.2.2.8) purified to homogeneity from Flavobacterium heparinum (protein, UniProt Q59289 25-659, looked up)
Heparin-sulfate lyase: QSSSITRKDFDHINLEYSGLEKVNKAVAAGNYDDAAKALLAYYREKSKAREPDFSNAEKPADIRQPIDKVTREMADKALVHQFQPHKGYGYFDYGKDINWQMWPVKDNEVRWQLHRVKWWQAMALVYHATGDEKYAREWVYQYSDWARKNPLGLSQDNDKFVWRPLEVSDRVQSLPPTFSLFVNSPAFTPAFLMEFLNSYHQQADYLSTHYAEQGNHRLFEAQRNLFAGVSFPEFKDSPRWRQTGISVLNTEIKKQVYADGMQFELSPIYHVAAIDIFLKAYGSAKRVNLEKEFPQSYVQTVENMIMALISISLPDYNTPMFGDSWITDKNFRMAQFASWARVFPANQAIKYFATDGKQGKAPNFLSKALSNAGFYTFRSGWDKNATVMVLKASPPGEFHAQPDNGTFELFIKGRNFTPDAGVFVYSGDEAIMKLRNWYRQTRIHSTLTLDNQNMVITKARQNKWETGNNLDVLTYTNPSYPNLDHQRSVLFINKKYFLVIDRAIGEATGNLGVHWQLKEDSNPVFDKTKNRVYTTYRDGNNLMIQSLNADRTSLNEEEGKVSYVYNKELKRPAFVFEKPKKNAGTQNFVSIVYPYDGQKAPEISIRENKGNDFEKGKLNLTLTINGKQQLVLVP
B2: Heparin lyase II: heparin lyase II (heparinase II, no EC number) purified to homogeneity from Flavobacterium heparinum (protein, UniProt C6XZB6 26-772, looked up)
Heparin and heparin-sulfate …: QTKADVVWKDVDGVSMPIPPKTHPRLYLREQQVPDLKNRMNDPKLKKVWADMIKMQEDWKPADIPEVKDFRFYFNQKGLTVRVELMALNYLMTKDPKVGREAITSIIDTLETATFKPAGDISRGIGLFMVTGAIVYDWCYDQLKPEEKTRFVKAFVRLAKMLECGYPPVKDKSIVGHASEWMIMRDLLSVGIAIYDEFPEMYNLAAGRFFKEHLVARNWFYPSHNYHQGMSYLNVRFTNDLFALWILDRMGAGNVFNPGQQFILYDAIYKRRPDGQILAGGDVDYSRKKPKYYTMPALLAGSYYKDEYLNYEFLKDPNVEPHCKLFEFLWRDTQLGSRKPDDLPLSRYSGSPFGWMIARTGWGPESVIAEMKVNEYSFLNHQHQDAGAFQIYYKGPLAIDAGSYTGSSGGYNSPHNKNFFKRTIAHNSLLIYDPKETFSSSGYGGSDHTDFAANDGGQRLPGKGWIAPRDLKEMLAGDFRTGKILAQGFGPDNQTPDYTYLKGDITAAYSAKVKEVKRSFLFLNLKDAKVPAAMIVFDKVVASNPDFKKFWLLHSIEQPEIKGNQITIKRTKNGDSGMLVNTALLPDAANSNITSIGGKGKDFWVFGTNYTNDPKPGTDEALERGEWRVEITPKKAAAEDYYLNVIQIADNTQQKLHEVKRIDGDKVVGVQLADRIVTFSKTSETVDRPFGFSVVGKGTFKFVMTDLLPGTWQVLKDGKILYPALSAKGDDGALYFEGTEGTYRFLR

Tests used:
[1] = Rice and Lindhardt (1989), cited from earlier work
[2] = Heparin lyase activity assay (change of absorbance at 232 nm), heparan sulfate as substrate; type: biochemical; details: for Unit/mg (specific activity): final GPC-HPLC purification step, acting on heparan sulfate; for average number of sites acted at in the heparan sulfate polymer: final level of depolymerization, 24 h; for initial activity in six buffers (Tris-HCl, sodium phosphate, HEPES, MOPS, TES, BTP-HCl): 50 mM buffer at optimum pH; for temperature for maximum activity: 50 mM sodium phosphate at optimum pH, 15-55° C.; for optimum temperature (summary): activity greater at higher temperatures but stability reduced; for Vmax: optimized conditions; for pH optimum for activity: on heparan sulfate; for specific activity: purified lyase, toward heparan sulfate
Procedure: (§1) The spectrophotometer was adjusted to the optimum temperature of the particular lyase being assayed. […] A measured quantity of lyase was added, bringing the final volume to 400 μl and the cuvette was gently mixed. The microcuvette was then immediately returned to the spectrophotometer and the change of absorbance at 232 nm was measured at 10 seconds intervals over 3 min. […] The specific activity was then calculated by dividing the micromoles of product produced per minute by the milligrams of protein in the cuvette. […] G., and Linhardt, R. J. (1989) Carbohydr. Res. 190, 219-233. Protein concentration was measured by the Bradford assay, Bradford, M. M. (1976) Anal. Biochem. 72, 248-254, based on a bovine serum albumin standard curve. […] The activities of each lyase (I acting on heparin, II acting on both heparin and heparan sulfate, and III acting on heparan sulfate) were then determined at different pH values. The buffer giving optimum activity for each heparin lyase was selected by testing buffers with buffering capacity near the pH optima calculated in the previous experiments. These buffers were: Tris-HCl, sodium phosphate, HEPES, MOPS, TES, and BTP-CHl. […] The heparin lyase assay solutions were made by diluting enzyme in 50 mM sodium phosphate buffer adjusted to the appropriate pH as previously described. Heparin lyase activity was determined in each buffer. Activity was assayed both immediately after addition to each buffer and following incubation for 24 h at 37° C. The salt concentration for optimum activity was investigated. Sodium chloride, potassium chloride, and sodium and potassium acetate were used to differentiate between ionic strength and specific ion affects. […] The temperature was adjusted in a temperature-regulated spectrophotometer and equilibrated for 10 min before the assay was started. Michaelis-Menten constants were determined using the optimized conditions. The final absorbance value for total depolymerization was divided by 20 to find a value that represented 5% reaction completion. The purified lyase preparations were diluted so that 5% of total depolymerization would be reached only at the end of a 3-min assay. The reaction velocities at specific molar concentrations for each lyase and their substrates were used for kinetic analysis using EZ-FIT hyperbolic curve-fitting program of […]. (1988) Anal. Biochem. 174, 437-447). Substrate solutions were prepared from 50 mg/ml heparin and 40 mg/ml for heparan sulfate stock solutions. […] The amount of purified lyase used was sufficient for complete depolymerization of heparin or heparan sulfate substrates within 30 min. The initial rate of depolymerization of each polysaccharide was measured, the reaction was then continued for 24 h, and the final level of polysaccharide depolymerization was assessed by measuring the final absorbance at 232 nm and expressed as percent activity.

[3] = Heparin lyase activity assay (change of absorbance at 232 nm), heparin as substrate; type: biochemical, porcine
Procedure: as §1

[4] = heparan sulfate, II: 35° C., pH 6.9, III: 35° C., pH 7.6, value ± standard error, read-out: Km(app)
[5] = heparan sulfate, value ± standard error
[6] = with heparan sulfate, read-out: Km (Michelis-Menton constant, summary)

Row | Molecule | Unit/mg (specific activity) [2] | average number of sites acted at in the heparan sulfate polymer [2] | initial activity in six buffers (Tris-HCl, sodium phosphate, HEPES, MOPS, TES, BTP-HCl) ([2]; heparan sulfate) | temperature for maximum activity ([2]; heparan sulfate) | Km [2, 4] | optimum temperature (summary) ([2]; heparan sulfate) | Vmax [2, 5] | pH optimum for activity [2] | specific activity [2] | Km (Michelis-Menton constant, summary) ([2]; with heparan sulfate) | V(max) (summary) ([2]; with heparan sulfate) | Km [2, 6] | also measured
1 | B1 | 63.5 Unit/mg | 20 sites | only slight differences in activity | 45 °C | 29.4 ± 3.16 µM | 35 °C | 141 ± 3.88 μmol/min mg protein | 7.6 | 63.5 units/mg | 0.780 mg/mL | 277.01 | 110 µM | Vmax (reported) [1]: 0.00357 µmol/min; Km ([1]; read-out: apparent Km (reported)): 5.7 µM
2 | B2 | 36.5 Unit/mg | 25 sites | marked reduction of activity in MOPS, TES, and HEPES | 40 °C | 11.2 ± 2.18 µM | 35 °C | 28.6 ± 1.26 μmol/min mg protein | 6.9 | 36.5 units/mg | 0.869 mg/mL | 46.95 | 43.4 µM | Unit/mg (specific activity) ([3]; final GPC-HPLC purification step, acting on heparin): 19 Unit/mg; average number of sites acted at in the heparin polymer ([3]; final level of depolymerization, 24 h): 14 sites; initial activity in six buffers (Tris-HCl, sodium phosphate, HEPES, MOPS, TES, BTP-HCl) ([3]; heparin, 50 mM buffer at optimum pH): remarkably similar in all six buffers; temperature for maximum activity ([3]; heparin, 50 mM sodium phosphate at optimum pH, 15-55° C.): 40 °C; Km ([3]; heparin, I: 30° C., pH 7.15, 100 mM sodium chloride, II: 35° C., pH 7.3, value ± standard error, read-out: Km(app)): 57.7 ± 6.56 µM; optimum temperature (summary) ([3]; heparin, activity greater at higher temperatures but stability reduced): 35 °C; Vmax ([3]; heparin, optimized conditions, value ± standard error): 16.7 ± 0.555 μmol/min mg protein; pH optimum for activity ([3]; on heparin): 7.3; specific activity ([3]; purified lyase, toward heparin): 19 units/mg; Km (Michelis-Menton constant, summary) ([3]; with heparin): 0,129 mg/ml; V(max) (summary) ([3]; with heparin): 15.04; Km ([3]; with heparin, read-out: Km (Michelis-Menton constant, summary)): 9.23 µM; initial rate on heparan sulfate relative to heparin [2]: 1.7 times
